The results in this text go back to doi:10.1101/2024.10.27.620470 (bioRxiv, 2024).

Several values for one entry are separate records, joined by “and”; a condition that tells them apart may be missing. Identical values can stand only once.

In assay [1] the target is N-terminal domain of SARS-CoV-2 nucleocapsid protein (NTD-N_(41-174)) (SARS-CoV-2) (UniProt P0DTC9). The assay is described as follows: ITC.
For assay [2], the target named is NTD-N_(41-174) protein double mutant (WV133134AA) (SARS-CoV-2) (UniProt P0DTC9). The assay is described as follows: ITC. On the technique in general: ITC needs no label: the signal is the heat of the interaction.
For assay [3], the target named is GFP-tagged G3BP1_(NTF-2) (G3BP1_(NTF-2)-GFP) (human, UniProt Q13283 1-139). The assay can be described thus: fluorescence intensity-based PPIs plate assay.
The target in assay [4] is NTF2-like domain of Ras GTPase-activating protein SH3-domain-binding protein 1 (G3BP1_(NTF-2)) (human, UniProt Q13283 1-139). The assay can be described thus: ITC.

Broadly, the Kd is the free concentration of one partner at which half of the binding sites on the other are occupied at equilibrium, for simple one-to-one binding. The low end stands for a tighter complex, the high end for a looser complex. In assay [1], “NTF2-like domain of Ras GTPase-activating protein SH3-domain-binding protein 1 (G3BP1_(NTF-2)) (from UniProt Q13283 1-139) (domain or fragment)” returned a Kd of 5.5 µM. Further, in assay [2], the fold higher KD than the single mutants (V134A and W133A) is 2 fold and 4 fold.
KDGIIAAATEG [mutant N_(128-138) peptide 2 (KDGIIAAATEG)]: the binding result in assay [3] was “binds”.
For the molecule KDGIIWVATEG [N_(128-138) peptide 1 (KDGIIWVATEG)], binding in assay [4] was characterised by a dissociation constant (Kd) of 11.8 µM.
As to KAGIIAAATEG [mutant N_(128-138) peptide 3 (KAGIIAAATEG)], in assay [3], the binding result is reported as “binds”.
